Test results taken from patent US20220242969A1 (FREDAX, published 2022).

B1: h5A10-DFO (antibody, human IgG1, kappa, V domains shown)
VH: QVTLKESGPALVKPTQTLTLTCTFSGFSLSTTGMGVSWIRQPPGKALEWLAHIYWDDDKRYSTSLKTRLTISEDSSKNQVVLTMTNMDPVDTATYYCARKGYYGYFDYWGQGTLVTVSS
VL: DIQMTQSPSSLSASVGDRVTVTCRASQNVNTDVAWYQQKPGKAPKALIFSTSYLQSGVPSRFSGSGSGTDFTLTISSLQPEDFATYYCQQYSNYPLTFGQGTKVEIKR
modifications: DFO (deferoxamine) chelator conjugated to the antibody; sites and chain not stated
notes: Humanised 5A10 IgG1/kappa conjugated with the chelator DFO; also called h5A10-DFO (141203)
B2: h5A10-DOTA (antibody, human IgG1, kappa, V domains shown)
VH: QVTLKESGPALVKPTQTLTLTCTFSGFSLSTTGMGVSWIRQPPGKALEWLAHIYWDDDKRYSTSLKTRLTISEDSSKNQVVLTMTNMDPVDTATYYCARKGYYGYFDYWGQGTLVTVSS
VL: DIQMTQSPSSLSASVGDRVTVTCRASQNVNTDVAWYQQKPGKAPKALIFSTSYLQSGVPSRFSGSGSGTDFTLTISSLQPEDFATYYCQQYSNYPLTFGQGTKVEIKR
modifications: DOTA chelator conjugated to the antibody; sites and chain not stated
notes: Humanised 5A10 IgG1/kappa conjugated with the chelator DOTA; also called h5A10-DOTA (141211)
B3: h5A10-DTPA (antibody, human IgG1, kappa, V domains shown)
VH: QVTLKESGPALVKPTQTLTLTCTFSGFSLSTTGMGVSWIRQPPGKALEWLAHIYWDDDKRYSTSLKTRLTISEDSSKNQVVLTMTNMDPVDTATYYCARKGYYGYFDYWGQGTLVTVSS
VL: DIQMTQSPSSLSASVGDRVTVTCRASQNVNTDVAWYQQKPGKAPKALIFSTSYLQSGVPSRFSGSGSGTDFTLTISSLQPEDFATYYCQQYSNYPLTFGQGTKVEIKR
modifications: DTPA chelator conjugated to the antibody; sites and chain not stated
notes: Humanised 5A10 IgG1/kappa conjugated with the chelator DTPA; also called h5A10-DTPA (141203); DTPA-h5A10
B4: humanised monoclonal antibody 5A10 (h5A10) (antibody, human IgG1, kappa, V domains shown)
VH: QVTLKESGPALVKPTQTLTLTCTFSGFSLSTTGMGVSWIRQPPGKALEWLAHIYWDDDKRYSTSLKTRLTISEDSSKNQVVLTMTNMDPVDTATYYCARKGYYGYFDYWGQGTLVTVSS
VL: DIQMTQSPSSLSASVGDRVTVTCRASQNVNTDVAWYQQKPGKAPKALIFSTSYLQSGVPSRFSGSGSGTDFTLTISSLQPEDFATYYCQQYSNYPLTFGQGTKVEIKR
notes: also called hu5A10 (141203); h5A10 (141203)

Molecular target: T1, prostate specific antigen (PSA) (human, UniProt P07288 25-261, limits assumed)
T1 construct: The antigen of the SPR study is only called 'PSA' (169 ug/ml, provided by Diaprost AB, Mw 30 000 Da); also called kallikrein III
Assay: SPR (Biacore 3000), PSA amine-coupled on CM4 chip, antibody in solution
Method: All binding experiments were performed on CM4 chip on a Biacore™ 3000 instrument. The chip and all the reagents needed for activation, immobilization, deactivation, binding and regeneration were purchased from GE Healthcare and used according to the guidelines from the manufacturer.
The dissociation phase data was fitted and the dissociation rate constants (koff) were estimated (see Table 1). [0279] (e) Estimation of the association rate constant (kₒₙ)
In order to estimate the association rate constants, the dissociation rate constants (Table 1) were used in the fitted equations. [0281] (f) Estimation of the dissociation constant (kD)

T1 sequence (P07288 25-261 limits assumed): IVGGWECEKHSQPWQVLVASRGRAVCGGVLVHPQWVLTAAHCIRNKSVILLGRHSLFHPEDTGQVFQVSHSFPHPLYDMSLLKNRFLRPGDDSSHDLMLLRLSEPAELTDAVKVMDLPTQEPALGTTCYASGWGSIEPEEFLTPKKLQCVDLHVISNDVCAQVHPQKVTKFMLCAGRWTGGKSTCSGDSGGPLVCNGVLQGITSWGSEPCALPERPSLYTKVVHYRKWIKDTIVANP

Going from B1 to B2, the Kd falls from 0.05 nM to 0.02 nM (2.5-fold).

B3 and B4 are the same in Kd: 0.01 nM for the first, 0.01 nM for the second.

B1 and B2 are within 1.5-fold of each other in koff: 8.3e-06 s⁻¹ for the first, 1.17e-05 s⁻¹ for the second.

B3 and B4 are the same in koff: 4.8e-06 s⁻¹ for the first, 4.8e-06 s⁻¹ for the second.

First: B1
Second: B2
The kon of the first is 3.2-fold lower: 170000 M⁻¹ s⁻¹ for the first, 540000 M⁻¹ s⁻¹ for the second.

First: B3
Second: B4
The kon of the first is 1.6-fold lower: 390000 M⁻¹ s⁻¹ for the first, 620000 M⁻¹ s⁻¹ for the second.
